The target of this series is hAGO2 (human, UniProt Q9UKV8 1-859). Put plainly: EMSA.

Experimental findings from publication PMC8811534 are described below.

Chain of hAGO2 (Q9UKV8 whole entry): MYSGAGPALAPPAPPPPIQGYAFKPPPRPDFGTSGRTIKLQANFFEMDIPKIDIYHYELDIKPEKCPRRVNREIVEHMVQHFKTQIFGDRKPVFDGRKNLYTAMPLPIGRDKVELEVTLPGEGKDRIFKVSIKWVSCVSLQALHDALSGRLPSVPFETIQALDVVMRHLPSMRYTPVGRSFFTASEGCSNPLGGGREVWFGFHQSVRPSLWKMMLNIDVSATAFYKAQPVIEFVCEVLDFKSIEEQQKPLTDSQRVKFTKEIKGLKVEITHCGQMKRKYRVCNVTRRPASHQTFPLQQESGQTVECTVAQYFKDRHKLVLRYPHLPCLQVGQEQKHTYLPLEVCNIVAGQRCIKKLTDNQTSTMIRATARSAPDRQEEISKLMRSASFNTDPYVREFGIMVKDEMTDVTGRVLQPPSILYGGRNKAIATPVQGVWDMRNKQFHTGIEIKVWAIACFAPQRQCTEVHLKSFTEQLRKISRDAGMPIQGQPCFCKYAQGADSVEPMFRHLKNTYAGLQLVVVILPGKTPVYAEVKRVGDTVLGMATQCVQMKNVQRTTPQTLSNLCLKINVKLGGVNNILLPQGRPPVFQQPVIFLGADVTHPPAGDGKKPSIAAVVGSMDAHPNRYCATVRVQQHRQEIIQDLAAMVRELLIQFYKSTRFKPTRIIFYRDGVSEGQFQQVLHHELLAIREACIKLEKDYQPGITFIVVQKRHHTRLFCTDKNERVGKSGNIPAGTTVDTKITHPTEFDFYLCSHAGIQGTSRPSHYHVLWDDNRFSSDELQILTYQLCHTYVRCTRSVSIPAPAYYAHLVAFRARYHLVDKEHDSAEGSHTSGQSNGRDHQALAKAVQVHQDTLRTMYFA

B1: 5'Cy5-HIS-SARS2-1 DNA-RNA hybrid (DNA:RNA)
DNA: AGCCTTTACCTCCATTAGCATAGACA
RNA: UGUCUAUGCUAAUGGAGGUAAAGGCU
Turning to B1, the binding result is listed as “binds”.
